What all share (assay type): binding
Experiment [1] in a line: Fluorescence enhancement of fluoro-labeled Fab complex / scFv with morphine. Conditions: antigen Morphine 100 μg/mL versus absence of antigen.
Experiment [2] is described as follows: Fluorescence enhancement of fluoro-labeled Fab complex / scFv with methamphetamine. Conditions: antigen Methamphetamine 100 μg/mL versus absence of antigen.
Experiment [3] in a line: Fluorescence enhancement of fluoro-labeled Fab complex with amphetamine. Conditions: antigen Amphetamine 100 μg/mL versus absence of antigen.
A short description of experiment [4]: Fluorescence enhancement of fluoro-labeled Fab complex with MDMA. Conditions: antigen MDMA 100 μg/mL versus absence of antigen.
A short description of experiment [5]: Fluorescence enhancement of fluoro-labeled Fab complex with MDA. Conditions: antigen MDA 100 μg/mL versus absence of antigen.
Experiment [6] can be described thus: Fluorescence enhancement of fluoro-labeled Fab complex / scFv with cocaine. Conditions: antigen Cocaine 100 μg/mL versus absence of antigen.
The nature of experiment [7]: Fluorescence enhancement of fluoro-labeled Fab complex / scFv with ketamine. Conditions: antigen Ketamine 100 μg/mL versus absence of antigen.

B1: Anti-Methamphetamine: same-color double-label Fab complex of anti-methamphetamine antibody; TAMRA-labeled VL (SEQ ID NO: 25) and VH (SEQ ID NO: 26) (antibody, V domains shown)
VH: QVQLQQSGPELVKPGASVKVSCKASGYPSTRFYIYWVKQSHGKSLEWIGNIDPYNGGTTYNQKFKGKATLTIDKSSTTAYVHLNSLTSEDSAVYYCAGFHYSGQLDTDVWGAGTKVTVSS
VL: DIVMTQSPAFMSASPGEKVTLTCSASSSVSSTFLYWYQQKPGSSPKLWIYSTSNLASGVPSRFSGSGSGTSYSLTINSMEAEDAASYFCHQWSNYPFTFGSGTKLEIKR
modifications: Fab; TAMRA labels; Meth-VH-26; Meth-VL-25
For B1, the “Fluorescence enhancement in the presence of 100 μg/mL antigen” value in experiment [1] is reported as 0.9; in experiment [2] it was 7.2; in experiment [3], 6.8; in experiment [4], 7.2; in experiment [5], 5.6; in experiment [6], 1.0. The “Fluorescence enhancement in the presence of 100 μg/mL antigen” value in experiment [7] was 1.0.

For the origin of these results see patent US20140329228A1 (Ushio Denki Kabushiki Kaisha, priority 2011, published 2014).
